This series can be described thus: yeast display, Sf9 membrane polyspecificity reagent, FACS + sequencing; frameworks hold sequencing errors. The gist of the method:
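After 36–48 hours of galactose induction, yeast (Saccharomyces cerevisiae BJ5465) displaying a synthetic nanobody library were stained at 4 °C for 1 hour with 10% biotinylated, detergent-solubilized Sf9 membrane reagent. Streptavidin microbeads enriched the stained cells before FACS sorting into low and high (top ~1%) gates on anti-HA and streptavidin fluorescence. Each clone's polyreactivity label reflects its gate of origin.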
As to “QVQLVESGGGLVQAGGSLRLSCAASGRTFYVYAMGWYIQAPGKERELVAAISWGGGSTYYSDSVKGRFTISRDNAKNTVYLQMNSLKPEDTAVYFCAADKTRYRLGRDYWGQGTQVTVSS”, the “polyreactivity (PSR sort gate)” value is “low polyreactivity”.
On to “QVQLVESGGGLVQAGGSLRLSCAASGRTFYVYAMGWYRQAPGKERELVAAISKSGGSTYYADSVKGRFTISRDNAKNTVYLQMNSLKPEDTAVYYCAARKSDPRTKLYNYWGQGTQVTVSS”, for which the “polyreactivity (PSR sort gate)” value is reported as “high polyreactivity”.
As for “QVQLVESGGGLVQAGGSLRLSCAASGRTFYVYTMGWYRQAPGKERELVAAITSGGSTNYADSVKGRFTISRDNAKNTVYLQMNSLKPEDTAVYYCAARVSTVFKRYYYWGQGTQVTVSS”, the entry is “high polyreactivity”; as for “QVQLVESGGGLVQAGGSLRLSCAASGRTFYWNPMGWYRQAPGKERELVAAITRNGGSTYYADSVKGRFTISRDNAKNTVYLQMNSLKPEDTAVYYCAARKRYGAGYDYWGQGTQVTVSS”, “high polyreactivity”.
As for “QVQLVESGGGLVQAGGSLRLSCAASGRTFYWYTMGWYRQAPGKERELVAGIRSGGYTNYADSVKGRFTISRDNAKNTVYLQMNSLKPEDTAVYYCAAGGYSSAYGVSYGSYYYWGQGTQVTVSS”, the entry is “low polyreactivity”; as for “QVQLVESGGGLVQAGGSLRLSCAASGRTFYYAMGWYRQAPGKERELVASITWSGGITTYADSVKGRFTISRDNAKNTVYLQLNSLKPEDTAVYYCAAQVIKGRTYQLGDYWGQGTQVTVSS”, “high polyreactivity”; as for “QVQLVESGGGLVQAGGSLRLSCAASGRTFYYAMGWYRQAPGKERELVASITWSGGITTYADSVKGRFTISRDNAKNTVYLQMNSLKPEDTAVYSCAAQVIKGRTYQLGDYWGQGTQVTVSS”, “high polyreactivity”.
To “QVQLVESGGGLVQAGGSLRLSCAASGRTFYYNAMGSYRQAPGKEREFVAAITWSGTRTYYADSVKGRFTISRDNAKNTVYLQMNSLKPEDTAVYYCAARRGVQGTQYYYWGQGTQVTVSS” belongs “high polyreactivity”; to “QVQLVESGGGLVQAGGSLRLSCAASGRTFYYNAMGWDRQAPGKESELVARITYRSGRTNYADSVKGRFTISRDNAKNTVYLQMNSLKPEDTAVYYCAAAWWCGAGRTRYEYWGQGTQVTVSS”, “high polyreactivity”.
On to “QVQLVESGGGLVQAGGSLRLSCAASGRTFYYNAMGWYRQAPGKERELVAAISSGDTTKYADSVKGRFTISRDNAKNTVYLQMNSLKPEDTAVYYCAAVYQSYTYYLPKYWSFYQNDYWGLGTQVTVSS”, for which the “polyreactivity (PSR sort gate)” value is listed as “low polyreactivity”.
On to “QVQLVESGGGLVQAGGSLRLSCAASGRTFYYNGMGWYRQAPGKERELVAAITSGGTTSYADSVKGRFTISRDNAKNTVYLQMNSLKPEDTAVYYCAKRTVPRYEYWGQGTQVTVSS”, for which the “polyreactivity (PSR sort gate)” value was “low polyreactivity”.
As for “QVQLVESGGGLVQAGGSLRLSCAASGRTFYYNTMGWYSQAPGKERELVATISRIGGSTYYADSVKGRFTISRDNAKNTVYLQMNSLKPEDTAVYYCAAYVAAYPTGYDYWGQGTQVTVSS”, the entry is “high polyreactivity”; as for “QVQLVESGGGLVQAGGSLRLSCAASGRTFYYNVMGWYRQAPGKESELVAAITNSGSTNYADSVKGRFTISRDNAKNTVYLQMNSLKPEDTAVYYCAARITYYGRKRGSRDYWGQGTQVTVSS”, “high polyreactivity”.
To “QVQLVESGGGLVQAGGSLRLSCAASGRTFYYYAMGWSRQAPGKERELVAAINRGGSTNYADSVKGRFTISRDNAKNTVYLQMNSQKPEATAVYDCNAAYYGPVRSKYVYWGQGTQVTVSS” belongs “high polyreactivity”; to “QVQLVESGGGLVQAGGSLRLSCAASGRTFYYYAMGWYRPAPGKERELVAAISWSGGRTYYADSVKGRFTISRDNAKNTVYLQMNSLKPEDTAVYYCNAEPPRGYTVSSGGEMDYWGQGTQVTVSS”, “low polyreactivity”.
To “QVQLVESGGGLVQAGGSLRLSCAASGRTFYYYAMGWYRQAPGKEREFVAAISWSGVRTSYADSVKGRFTISRDNAKNTVNLQMNSLKPEDTAVYYCATKPNPQSRPRYDHWGQGTQVTVSS” belongs “high polyreactivity”.
“QVQLVESGGGLVQAGGSLRLSCAASGRTFYYYAMGWYRQAPGKEREFVASITWRGGRTYYADSVKGRFTISRDNAKNTVYLQMNSLKPEDTAVYYCAADGSYAIGGYGYWGQGTQVTVSS”: the “polyreactivity (PSR sort gate)” value is on record as “high polyreactivity”.
As for “QVQLVESGGGLVQAGGSLRLSCAASGRTFYYYAMGWYRQAPGKEREFVASITWRGGRTYYADSVKGRFTISRDNAKNTVYLQMNSLKPEDTAVYYCAAESYHPEYYYWGQGTQVTVSS”, the entry is “high polyreactivity”.
In the case of “QVQLVESGGGLVQAGGSLRLSCAASGRTFYYYAMGWYRQAPGKERELVAAINTRGTSTYYADSVKGRFTISRDNAKNTVYLQMNSLKPEDTAVYYCAVDPYGDSWEDWFRNYYYGYDYWGQGTQVTVSS”, the “polyreactivity (PSR sort gate)” value is recorded as “low polyreactivity”.
As for “QVQLVESGGGLVQAGGSLRLSCAASGRTFYYYTMGWYRQAPGKERELVAAITWNGGSTYYADSVKGRFTISRDNAKNTVYLQMNSLKPEDTAVYYCNARWTWRYDYWGQGTQVTVSS”, the entry is “high polyreactivity”; as for “QVQLVESGGGLVQAGGSLRLSCAASGRTGVNAIGWYRQAPGKERELVAAINNGDSTYYADSVKGRFTISRDNAKNTVYLQMNSLKPEDTAVYYCAAGLDEGDYWQESDYWGQGTQVTVSS”, “low polyreactivity”.
As to “QVQLVESGGGLVQAGGSLRLSCAASGRTIDPNAMGWYRQAPGKERELVAAISRTGVRTYYADSVMGRFTISRDNAKNTVYLQMNSLKPEDTAVYYCNRYGARSNDYWGQGTQVPVSS”, the “polyreactivity (PSR sort gate)” value was “low polyreactivity”.
As for “QVQLVESGGGLVQAGGSLRLSCAASGRTIDSYAMGWYRQAPGKERELVAAISKSGGRTYYADSVKGRFTISRDNAKNTVYLQMNSLKPEDTAVYYCNAQRVAYWRVAYDYWGQGTQVTVSS”, the entry is “high polyreactivity”; as for “QVQLVESGGGLVQAGGSLRLSCAASGRTIGGYAMGWYRQAPGKERELVATITRGGRTYYADSVKGRFTISRDNAKNTVYLQMNSLKPEDTAVYYCAARYGQSRSVYNLYRFDYWGQGTQVTVSS”, “high polyreactivity”.
To “QVQLVESGGGLVQAGGSLRLSCAASGRTIGQNAMGWYRQAPGKERELVAAISASGSNTYYADSVKGRFTISRDNAKNTVYLQMNSLKPEDTAVYYCAKQVYRPGQQSRYDYWGQGTQVTVSS” belongs “low polyreactivity”.
To “QVQLVESGGGLVQAGGSLRLSCAASGRTIGVYAMGWYRQAPGKERELVAAISWSGGTTYYADSVKGRFTISRDNAKYTVYLQMNSLKPEDTAVYYCAADSYTEVDYWGQGTQVTVSS” belongs “low polyreactivity”.
In the case of “QVQLVESGGGLVQAGGSLRLSCAASGRTIIYNTMGWYRQAPGKEREFVAAINWSGGSTYYADSAKGRFTISRDNAKNTVYLQMNSLKPEDTAVYYCNAEAGYYRALIYDYWGQGTQVTVSS”, the “polyreactivity (PSR sort gate)” value is recorded as “low polyreactivity”.
To “QVQLVESGGGLVQAGGSLRLSCAASGRTIKYYAMGWYRQAPGKERQLVAVISWSGGRTYYADSVKGRFTISRDNAKNTVYLQMNSLKPEDTAVYYCNAVYPYYYLLKRYKEGYWGLGTQVTVSS” belongs “high polyreactivity”; to “QVQLVESGGGLVQAGGSLRLSCAASGRTIPTYVMGWYRQAPGKERELVASIRSGGRTKYADSVKGRFTISRDNAKNTVYLQMNSLKPEDTAVYYCAADRRAYYYSFDYWGQGTQVTVSS”, “low polyreactivity”.
As for “QVQLVESGGGLVQAGGSLRLSCAASGRTIPWNVMGWYRQAPGKERELVATITSRRTSTNYADSVKGRFTISRDNAKNTVYLQMNSLKPEDTAVYYCARRTVWGAGHYYYWGQGTQVTVSS”, the entry is “high polyreactivity”; as for “QVQLVESGGGLVQAGGSLRLSCAASGRTIPYKSMGWYRQAPGKERELVAAITSGGTTNYADSVKGRFTISRDNAKNTVYLQMNSLKPVDTAVYYCAADSDASSQFRRDYWGQGTQVNVSS”, “low polyreactivity”.
As for “QVQLVESGGGLVQAGGSLRLSCAASGRTIQTYTMGWYRQAPGKERELDAVITTRGGRTYYADSVKGRFTISRDNAKNTVYLQMNSLKPEDTAVYYCNKGIPTRSVRSYDYWGQGTQVTVSS”, the entry is “high polyreactivity”; as for “QVQLVESGGGLVQAGGSLRLSCAASGRTIQTYVMGWYRQAPGKERELVASIRSGGRTKYADSVKGRFTISRDNAKNTVYLQMNSLKPEDTAVYYCAADRRAYYYSFDYWGQGTQVTVSS”, “low polyreactivity”; as for “QVQLVESGGGLVQAGGSLRLSCAASGRTISVYGMGWYRQAPGKERELVASIPWRGGTTYYADSVKGRFTISRDNAKNTVYLQMNSLKPEDTAVYYCAIEPFRFRYYYWGQGTQVTVSS”, “high polyreactivity”.
For “QVQLVESGGGLVQAGGSLRLSCAASGRTISYYAMVWYRPAPGKERELVAAISSSGGSTYYADSVKGRFTISRDNAKNTFYLQMNSLKPEDTAVYYCAAYQRGNRYDYWGQGTQVTVSS”, the “polyreactivity (PSR sort gate)” value was “high polyreactivity”.
To “QVQLVESGGGLVQAGGSLRLSCAASGRTITAYTMVWYRQAPVKEREMVASISSGVTYADSVKGRFTISRDNAKNTVYLQMNRLKPEDTAVYYCAARLWYVQGYVPYVHHRFDYWGQGTQVTVSS” belongs “low polyreactivity”; to “QVQLVESGGGLVQAGGSLRLSCAASGRTITFNTMGWYRQAPGKERELVAGIDRGGSTNYADSVKGRFTISRDNAKNTVYLQMNSLKPEDTAVYYCAKRWTGLGGYYYWGQGTQVTVSS”, “high polyreactivity”.
To “QVQLVESGGGLVQAGGSLRLSCAASGRTITFYTMGWYRQAPVKERELVARITGGGSTFYADSVKGRFTISRDNAKNTVYLLMNSLKPEDTAVYYCAREYASAFWYPMYYWGQGTQVNVSS” belongs “low polyreactivity”.
For “QVQLVESGGGLVQAGGSLRLSCAASGRTIVWYAMGWYRQAPGKERELVAAISKRGGSTYYADSVKGRFTISRDNAKNTVYLQMNSLKPEDTAVYYCAAEVYYGSSYGYWGQGTQVTVSS”, the “polyreactivity (PSR sort gate)” value is listed as “high polyreactivity”.
As for “QVQLVESGGGLVQAGGSLRLSCAASGRTIWYYAMGWYRQAPGKERELVAAITNRGGSTSYADSVKVRFTISRDNVKNTVYLQMNSLKPEDTAVYYCAKENYYGGGFDYWGQGTQVTVSS”, the entry is “high polyreactivity”.
Regarding “QVQLVESGGGLVQAGGSLRLSCAASGRTIYQYAMGGYRQATGKARELDAAISRGGSTNFADSLKGRFTISRDNAKNTVYLQMNSLKPEDTAVYYCASWYKFLSLKRLYERDYWGQGTQVTVSS”, the “polyreactivity (PSR sort gate)” value is listed as “high polyreactivity”.

The values are drawn from the nanobody polyreactivity screen of Harvey et al. (2022).
